Laboratory results from publication PMC12637224, “The nonconserved integrin cytoplasmic region determines integrin subtype–specific characteristics by modulating talin1 binding kinetics” (The Journal of Biological Chemistry, 2025).

Key:
[1] = target: T1, HaloTag-fused talin1 (HT-talin1), endogenous knock-in in mouse primary T cells (mouse (endogenous knock-in in mouse T …, UniProt P26039 1-2541, HaloTag labelled with HT SaraFluor 650T Ligand)); test: naive T cells, on MAdCAM1
[2] = target: T1, HaloTag-fused talin1 (HT-talin1), …; test: activated T cells, on MAdCAM1

- koff [1]: 0.576 s⁻¹
- koff [2]: 0.61 s⁻¹
B1: α4/β7 integrin, endogenous on mouse primary T cells (receptor)
chain 1: YNLDPENALLYQGPSGTLFGYSVVLHSHGSKRWLIVGAPTASWLSNASVVNPGAIYRCGIRKNPNQTCEQLQSGSPSGEPCGKTCLEERDNQWLGVTLSRQPGENGSIVTCGHRWKNIFYMKSDNKLPTGICYVMPSDLRTELSKRMAPCYKDYTRKFGENFASCQAGISSFYTQDLIVMGAPGSSYWTGTVFVYNITTNQYKAFVDRQNQVKFGSYLGYSVGAGHFRSPHTTEVVGGAPQHEQIGKAYIFSIDENELNIVYEMKGKKLGSYFGASVCAVDLNADGFSDLLVGAPMQSTIREEGRVFVYINSGMGAVMVEMERVLVGSDKYAARFGESIANLGDIDNDGFEDIAIGAPQEDDLRGAVYIYNGRVDGISSTYSQRIEGQQISKSLRMFGQSISGQIDADNNGYVDVAVGAFQSDSAVLLRTRPVVIVEASLSHPESVNRTKFDCTENGLPSVCMHLTLCFSYKGKEVPGYIVLFYNVSLDVHRKAESPSRFYFFSNGTSDVITGSIRVSSSGEKCRTHQAFMRKDVRDILTPIHVEATYHLGHHVITKRNTEEFPPLQPILQQKKEKDVIRKMINFARFCAYENCSADLQVSAKVGFLKPYENKTYLAVGSMKTIMLNVSLFNAGDDAYETTLNVQLPTGLYFIKILDLEEKQINCEVTESSGIVKLACSLGYIYVDRLSRIDISFLLDVSSLSRAHEDLSISVHASCENEGELDQVRDNRVTLTIPLRYEVMLTVHGLVNPTSFVYGSSEENEPETCMAEKLNLTFHVINTGISMAPNVSVKIMVPNSFLPQDDKLFNVLDVQTTTGQCHFKHYGRECTFAQQKGIAGTLTDIVKFLSKTDKRLLYCMKADQHCLDFLCNFGKMESGKEASVHIQLEGRPSILEMDETSSLKFEIKATAFPEPHPKVIELNKDENVAHVFLEGLHHQRPKRHFTIIIITISLLLGLIVLLLISCVMWKAGFFKRQYKSILQEENRRDSWSYVNSKSNDD
chain 2: ELDTKITSSGEAAEWEDPDLSLQGSCQPVPSCQKCILSHPSCAWCKQLNFTASGEAEARRCARREELLARGCPAQELEEPRGRQEVLQDKPLSQGDRGEGATQLAPQRIRVTLRPGEPQKFRVRFLRAAGYPVDLYYLMDLSYSMKDDLERVRQLGHALLVRLQEVTHSVRIGFGSFVDKTVLPFVSTVPSKLHHPCPSRLERCQPPFSFHHVLSLTGDAQAFEREVGRQNVSGNLDSPEGGFDAILQAALCQEQIGWRNVSRLLVFTSDDTFHTAGDGKLGGIFMPSDGRCHLDSNGVYTNSAEFDYPSVGQVAQALTAANIQPIFAVTGATLPVYQELRQLIPKSAVGELSEDSSNVVQLIMDAYDSLSSTVTLEHSPLPPGVSISFESHCKGPEKTEGEAGDRGQCNDVRVNQTVDFWVTLQATHCLPEAHVLRLWALGFSEELTVELHTVCDCNCGDAQPHAPYCSDGQGDLQCGICSCAPGRLGQLCECSEADLSSPDLESGCRAPNGTGPLCSGKGRCQCGRCSCSGQSSGRLCECDDASCERHEGILCGGFGHCQCGVCHCHANHTGRACECSKSVDSCVSPEGGLCSGHGYCKCNRCQCLDGYYGALCDQCLGCKSPCEQYRDCAECGAFGTGPLAANCSVVCADVNVTLTLAPNLDDGWCKERTIDNQLFFFLVEHAASGIVLRVRPQEKGVDHTRAIILGCTGGIVAVGLGLVLAYRLSVEIYDRREYRRFEKEQQQLNWKQDNNPLYKSAITTTVNPRFQGTNGRSPSLSLTREAD
